In paper PMC8187860, “Substitution of a Surface-Exposed Residue Involved in an Allosteric Network Enhances Tryptophan Synthase Function in Cells” (Frontiers in Molecular Biosciences, 2021):

T1: Escherichia coli tryptophan synthase beta subunit (βTS) (E. coli, UniProt P0A879 1-397)
T1 construct: tryptophan synthase beta subunit (βTS), E. coli; No removal of the hexahistidine tag is mentioned; also called beta subunit of TS; source: E. coli BL21 (DE3*), purified (Ni-NTA, S200 size exclusion)
T1 sequence (looked up): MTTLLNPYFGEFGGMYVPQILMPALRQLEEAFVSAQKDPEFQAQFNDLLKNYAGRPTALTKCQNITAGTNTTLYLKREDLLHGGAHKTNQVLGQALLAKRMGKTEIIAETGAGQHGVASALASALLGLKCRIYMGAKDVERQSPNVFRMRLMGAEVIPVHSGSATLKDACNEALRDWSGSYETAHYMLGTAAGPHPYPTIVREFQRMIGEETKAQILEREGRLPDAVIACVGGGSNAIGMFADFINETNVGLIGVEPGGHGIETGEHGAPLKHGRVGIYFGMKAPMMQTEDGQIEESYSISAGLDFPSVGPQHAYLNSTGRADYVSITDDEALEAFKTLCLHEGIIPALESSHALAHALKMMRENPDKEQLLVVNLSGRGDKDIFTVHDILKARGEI

T2: Escherichia coli tryptophan synthase alpha subunit (αTS), A198W variant (E. coli, UniProt P0A877 1-268, A198W)
T2 sequence: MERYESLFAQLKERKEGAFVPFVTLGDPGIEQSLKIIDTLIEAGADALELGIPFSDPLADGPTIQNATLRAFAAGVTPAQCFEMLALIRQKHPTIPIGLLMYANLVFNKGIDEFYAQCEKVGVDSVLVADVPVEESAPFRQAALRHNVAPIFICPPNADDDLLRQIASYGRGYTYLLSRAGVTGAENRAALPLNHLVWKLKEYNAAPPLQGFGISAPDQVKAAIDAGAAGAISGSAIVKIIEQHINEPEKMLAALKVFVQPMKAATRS


Tests used:
[1] = molecular target: T1, Escherichia coli tryptophan synthase …; assay: ITC; αTS subunit (WT or A198W) binding to the βTS subunit; which protein was titrated, buffer and temperature are not told in the main text (Supplementary Figure 5); conditions: both partners purified
[2] = molecular target: T1, Escherichia coli tryptophan synthase …; assay: cell-based or functional assay
[3] = molecular target: T2, Escherichia coli tryptophan synthase …; assay: ITC

Row | Binder | Kd [1] [nM] | kcat/KM of the full TS complex reaction (production of tryptophan from IGP, 290 nm; 50 µM α2β2 TS complex) [2] [M⁻¹ s⁻¹] | kcat/KM of the βTS assay in the presence of αTS (production of tryptophan from indole, 290 nm; 0.5 µM α2β2 TS complex) [2] [M⁻¹ s⁻¹] | Kd [3] [nM]
1 | Escherichia coli tryptophan synthase alpha subunit (αTS), wild type (enzyme, E. coli, UniProt P0A877 1-268, looked up, tryptophan synthase alpha subunit (αTS, product of trpA), E. coli; Axe et al., 2014) for the construct and its purification; also called WT αTS; WT; source: E. coli BL21 (DE3*), purified as previously (Axe and Boehr, 2013; Axe et al., 2014; O'Rourke et al., 2019) MERYESLFAQLKERKEGAFVPFVTLGDPGIEQSLKIIDTLIEAGADALELGIPFSDPLADGPTIQNATLRAFAAGVTPAQCFEMLALIRQKHPTIPIGLLMYANLVFNKGIDEFYAQCEKVGVDSVLVADVPVEESAPFRQAALRHNVAPIFICPPNADDDLLRQIASYGRGYTYLLSRAGVTGAENRAALPLNHLVAKLKEYNAAPPLQGFGISAPDQVKAAIDAGAAGAISGSAIVKIIEQHINEPEKMLAALKVFVQPMKAATRS | ~25 |  |  | 
2 | Escherichia coli tryptophan synthase alpha subunit (αTS), A198W variant (enzyme, E. coli, UniProt P0A877 1-268, looked up, tryptophan synthase alpha subunit (αTS, product of trpA), E. coli, with the substitution A198W; Made by QuikChange site-directed mutagenesis of the wild-type αTS plasmid; also called A198W αTS; source: E. coli BL21 (DE3*), purified as previously (Axe and Boehr, 2013; Axe et al., 2014; O'Rourke et al., 2019)) MERYESLFAQLKERKEGAFVPFVTLGDPGIEQSLKIIDTLIEAGADALELGIPFSDPLADGPTIQNATLRAFAAGVTPAQCFEMLALIRQKHPTIPIGLLMYANLVFNKGIDEFYAQCEKVGVDSVLVADVPVEESAPFRQAALRHNVAPIFICPPNADDDLLRQIASYGRGYTYLLSRAGVTGAENRAALPLNHLVWKLKEYNAAPPLQGFGISAPDQVKAAIDAGAAGAISGSAIVKIIEQHINEPEKMLAALKVFVQPMKAATRS | ~25 | 9900 | 190000 | 
3 | Escherichia coli tryptophan synthase beta subunit (βTS) (enzyme) MTTLLNPYFGEFGGMYVPQILMPALRQLEEAFVSAQKDPEFQAQFNDLLKNYAGRPTALTKCQNITAGTNTTLYLKREDLLHGGAHKTNQVLGQALLAKRMGKTEIIAETGAGQHGVASALASALLGLKCRIYMGAKDVERQSPNVFRMRLMGAEVIPVHSGSATLKDACNEALRDWSGSYETAHYMLGTAAGPHPYPTIVREFQRMIGEETKAQILEREGRLPDAVIACVGGGSNAIGMFADFINETNVGLIGVEPGGHGIETGEHGAPLKHGRVGIYFGMKAPMMQTEDGQIEESYSISAGLDFPSVGPQHAYLNSTGRADYVSITDDEALEAFKTLCLHEGIIPALESSHALAHALKMMRENPDKEQLLVVNLSGRGDKDIFTVHDILKARGEI |  |  |  | 28
